Reference: patent US20220211037A1, “BIOSENSORS FOR DROUGHT STRESS IN PLANTS” (The Regents of the University of California, priority 2019, published 2022)

Tests used:
[1] = target: 1:1 mixture of PYL3 containing PYL3-Cy5.5 and PYL3-BHQ3 (Arabidopsis thaliana); experiment: calculated from static light scattering of the mixture, 40 µM ABA
[2] = target: 1:1 mixture of PYL3 containing PYL3-Cy5.5 and PYL3-BHQ3 (Arabidopsis thaliana); experiment: calculated from static light scattering of the mixture, 0.1 µM ABA
[3] = target: 1:1 mixture of PYL3 containing PYL3-Cy5.5 and PYL3-BHQ3 (Arabidopsis thaliana); experiment: calculated from static light scattering of the mixture, 1.0 µM ABA
[4] = target: 1:1 mixture of PYL3 containing PYL3-Cy5.5 and PYL3-BHQ3 (Arabidopsis thaliana); experiment: calculated from static light scattering of the mixture, 100 µM ABA
[5] = target: 1:1 mixture of PYL3 containing PYL3-Cy5.5 and PYL3-BHQ3 (Arabidopsis thaliana); experiment: calculated from static light scattering of the mixture, 1000 µM ABA
[6] = target: 1:1 mixture of PYL3 containing PYL3-Cy5.5 and PYL3-BHQ3 (Arabidopsis thaliana); experiment: static light scattering of the PYL3-Cy5.5/PYL3-BHQ3 mixture, 40 µM ABA
[7] = target: 1:1 mixture of PYL3 containing PYL3-Cy5.5 and PYL3-BHQ3 (Arabidopsis thaliana); experiment: static light scattering of the PYL3-Cy5.5/PYL3-BHQ3 mixture, 0.1 µM ABA
[8] = target: 1:1 mixture of PYL3 containing PYL3-Cy5.5 and PYL3-BHQ3 (Arabidopsis thaliana); experiment: static light scattering of the PYL3-Cy5.5/PYL3-BHQ3 mixture, 1.0 µM ABA
[9] = target: 1:1 mixture of PYL3 containing PYL3-Cy5.5 and PYL3-BHQ3 (Arabidopsis thaliana); experiment: static light scattering of the PYL3-Cy5.5/PYL3-BHQ3 mixture, 100 µM ABA
[10] = target: 1:1 mixture of PYL3 containing PYL3-Cy5.5 and PYL3-BHQ3 (Arabidopsis thaliana); experiment: static light scattering of the PYL3-Cy5.5/PYL3-BHQ3 mixture, 1000 µM ABA
[11] = target: 1:1 mixture of PYL3 containing PYL3-Cy5.5 and PYL3-BHQ3 (Arabidopsis thaliana); experiment: Cy5.5 fluorescence of the PYL3-Cy5.5/PYL3-BHQ3 mixture (quenched in dimers), 40 µM ABA
[12] = target: 1:1 mixture of PYL3 containing PYL3-Cy5.5 and PYL3-BHQ3 (Arabidopsis thaliana); experiment: Cy5.5 fluorescence of the PYL3-Cy5.5/PYL3-BHQ3 mixture (quenched in dimers), 0.1 µM ABA
[13] = target: 1:1 mixture of PYL3 containing PYL3-Cy5.5 and PYL3-BHQ3 (Arabidopsis thaliana); experiment: Cy5.5 fluorescence of the PYL3-Cy5.5/PYL3-BHQ3 mixture (quenched in dimers), 1.0 µM ABA
[14] = target: 1:1 mixture of PYL3 containing PYL3-Cy5.5 and PYL3-BHQ3 (Arabidopsis thaliana); experiment: Cy5.5 fluorescence of the PYL3-Cy5.5/PYL3-BHQ3 mixture (quenched in dimers), 100 µM ABA
[15] = target: 1:1 mixture of PYL3 containing PYL3-Cy5.5 and PYL3-BHQ3 (Arabidopsis thaliana); experiment: Cy5.5 fluorescence of the PYL3-Cy5.5/PYL3-BHQ3 mixture (quenched in dimers), 1000 µM ABA

PYLs in dimers (hetero- and homodimers, %) [1]: 68%
PYLs in monomers (%) [1]: 32%
PYLs in dimers (hetero- and homodimers, %) [2]: 98%
PYLs in monomers (%) [2]: 2%
PYLs in dimers (hetero- and homodimers, %) [3]: 84%
PYLs in monomers (%) [3]: 16%
PYLs in dimers (hetero- and homodimers, %) [4]: 32%
PYLs in monomers (%) [4]: 68%
PYLs in dimers (hetero- and homodimers, %) [5]: 20%
PYLs in monomers (%) [5]: 80%
Average molar mass (measured, amu) [6]: 43300 amu
Average molar mass (measured, amu) [7]: 51100 amu
Average molar mass (measured, amu) [8]: 47400 amu
Average molar mass (measured, amu) [9]: 34000 amu
Average molar mass (measured, amu) [10]: 31100 amu
Fluorescence (measured) [11]: 5300 cps
Fluorescence (measured) [12]: 3960 cps
Fluorescence (measured) [13]: 4290 cps
Fluorescence (measured) [14]: 6710 cps
Fluorescence (measured) [15]: 9490 cps
Substance: 1:1 mixture of PYL3 containing PYL3-Cy5.5 and PYL3-BHQ3
